From US10301596B2, “Method of repairing damaged chondrocytes via low-dose irradiation” (KOREA INSTITUTE OF RADIOLOGICAL & MEDICAL SCIENCES, priority 2013, dated 2019)

Tested on: chondrocytes
Assay: Levels of differentiation- and inflammation-related proteins (type II collagen, Sox-9, I-κB, COX-2), Western blot in chondrocytes
Format: cell-based
Conditions: 10 ng/mL EGF, 10 nM PMA or 1 μM RA
Method: First, the chondrocytes derived from joints were cultured in a DMEM medium according to a known method (E. H. Hong, et al., J. Biol. Chem. 285:1283-1295, 2010). Then, the cultured chondrocytes were inoculated into culture dishes at a density of 5×10^4 cells/cm^2, which were irradiated with 0 cGy, 0.5 cGy, 1.0 cGy, 1.5 cGy, and 2.0 cGy LDR using a ^137Cs-ray source (KIRMS, Korea), and the levels of type II collagen or Sox-9 protein, which are cartilage-specific differentiation marker proteins, and I-κB or COX-2 protein, which are inflammation-related proteins, were determined via Western blot analysis, and the transcriptional activity of Sox-9 protein and NF-κB, which is affected by I-κB, were determined by reporter gene assay (FIGS. 1a and b). […]
Finally, chondrocytes were transfected with 3 μg of GFP-labeled S83A α-catenin, FLAG-labeled S33A β-catenin, or wild type γ-catenin, reacted with or without treatment with 5 μM or 10 μM BAY 11-7082 for 24 hours, and the levels of I-κB and COX-2 proteins were determined via Western blot analysis (FIG. 5g). […]

B1: epidermal growth factor (protein, UniProt P01133 23-1207, looked up)
Pro-epidermal growth factor: PQHWSCPEGTLAGNGNSTCVGPAPFLIFSHGNSIFRIDTEGTNYEQLVVDAGVSVIMDFHYNEKRIYWVDLERQLLQRVFLNGSRQERVCNIEKNVSGMAINWINEEVIWSNQQEGIITVTDMKGNNSHILLSALKYPANVAVDPVERFIFWSSEVAGSLYRADLDGVGVKALLETSEKITAVSLDVLDKRLFWIQYNREGSNSLICSCDYDGGSVHISKHPTQHNLFAMSLFGDRIFYSTWKMKTIWIANKHTGKDMVRINLHSSFVPLGELKVVHPLAQPKAEDDTWEPEQKLCKLRKGNCSSTVCGQDLQSHLCMCAEGYALSRDRKYCEDVNECAFWNHGCTLGCKNTPGSYYCTCPVGFVLLPDGKRCHQLVSCPRNVSECSHDCVLTSEGPLCFCPEGSVLERDGKTCSGCSSPDNGGCSQLCVPLSPVSWECDCFPGYDLQLDEKSCAASGPQPFLLFANSQDIRHMHFDGTDYGTLLSQQMGMVYALDHDPVENKIYFAHTALKWIERANMDGSQRERLIEEGVDVPEGLAVDWIGRRFYWTDRGKSLIGRSDLNGKRSKIITKENISQPRGIAVHPMAKRLFWTDTGINPRIESSSLQGLGRLVIASSDLIWPSGITIDFLTDKLYWCDAKQSVIEMANLDGSKRRRLTQNDVGHPFAVAVFEDYVWFSDWAMPSVMRVNKRTGKDRVRLQGSMLKPSSLVVVHPLAKPGADPCLYQNGGCEHICKKRLGTAWCSCREGFMKASDGKTCLALDGHQLLAGGEVDLKNQVTPLDILSKTRVSEDNITESQHMLVAEIMVSDQDDCAPVGCSMYARCISEGEDATCQCLKGFAGDGKLCSDIDECEMGVPVCPPASSKCINTEGGYVCRCSEGYQGDGIHCLDIDECQLGEHSCGENASCTNTEGGYTCMCAGRLSEPGLICPDSTPPPHLREDDHHYSVRNSDSECPLSHDGYCLHDGVCMYIEALDKYACNCVVGYIGERCQYRDLKWWELRHAGHGQQQKVIVVAVCVVVLVMLLLLSLWGAHYYRTQKLLSKNPKNPYEESSRDVRSRRPADTEDGMSSCPQPWFVVIKEHQDLKNGGQPVAGEDGQAADGSMQPTSWRQEPQLCGMGTEQGCWIPVSSDKGSCPQVMERSFHMPSYGTQTLEGGVEKPHSLLSANPLWQQRALDPPHQMELTQ
modifications: Pro-epidermal growth factor
notes: agent known to induce dedifferentiation of chondrocytes
In the case of B1, the “pathological changes induced by soluble factor (type II collagen, Sox-9, COX-2 proteins)” value is reported as “inhibition of expression of type II collagen and Sox-9 proteins and induction of COX-2 protein expression”.
